Experiment: soluble on expression in E. coli; label from the status in PepcDB or PDB records

| Sequence | soluble on expression in E. coli |
| --- | --- |
| MARKHIYIAYTGGTIGMKKSDHGYVPVAGFMEKQLASMPEFHRPEMPLFTIHEYDPLMDSSDMTPADWQLIADDIAANYDKYDGFVILHGTDTMAYTASALSFMFENLGKPVIVTGSQIPLADLRSDGQANLLNALHVAANYPINEVTLFFNNRLMRGNRSRKSHADGFSAFSSPNLPPLLEAGINIELSTNVKVDEKPSGEFKVNPITPQPIGVITMYPGISHEVIRNTLLQPVNAMILLTFGVGNAPQNPELLAQLKAASERGVIVVNLTQCLAGKVNMGGYATGCALADAGVISGYDMTPEAALAKLHYLLSQNLSYEEVKAKMQQVLRGEMTL | soluble |
| TDDVEEDGEPSYKRVAEPEEDESAKPFGGEKAKAARPEPAVKGVRHTSPAPTAAPEKKTSWWDSFKAWLKRIFGGSETQAAPAAETSEKRSTANRSGSRANNRRQNPRRSKREGSKVEVREVAGKTAGQEARADKAETRNNGNRRRNERGDRAAERANEAEIQSRNVQPAATVADAAPSETEVQTGKRRRNGSRSERGQTAPETATVAETTVQTAENTPSEPHTAEDKGSKPKSERNRRERDSRDAKERRERNNQRDRRQNGKKRNIPSAAKIEQYLNIHDTADKVRSAAAHVFGETDANAPITVSIADPVAERDLPTASPAVSNGDAPVYDAAEKIRRATAAILPEGATPKAEAQEMPSETATFTAAAEQARETAQTGGLVLIETDPAALKAWAAQPEVQAGRGLRRSEQPKPSEVATVPAEEMIQVETRQG | not soluble |
| MHSIYKFSTCNVHRESPLRVRVEDLTVAYNGEPVLSGVNLEFRGPGLVQIIGPNGAGKTTFLKAILGLIKPARGRVFLDGFEATGRPEMVGRYAGYVPQNPSAPKLSPMTVREFVETSLRLRGVTRARERAVEVLHTLGIRGEVLESRLWELSMGMLQRVFIARAIAPDPKMLVMDEPLASVDPAGRMEIARIIAGLARERLVLMTSHDPSLLLGHTDIIVVINRDLIASGPPEEVYREDVLRRVYGESVARGLVLAGEGGAHG | soluble |
| MKKYLFAEQGFVEKPDFGADCWVCVETPDAEDMKFLIDTLNVPEDFLSDIADADERPRVEHDGDWHLTILRIPIESRLSGVPYVTVPMGIATRSDVTVSVCYHRAPMLADFLLHTRRKRIKVLNRTELVLRLIYSSAVWFLKYLKQINNEVTISERELERSIRNEDLIHLMMLQKTLVYFSTSIRGNEAVLGKIRASGENRIDEELVEDVRIELRQAYNTVNIYSDILSGTTEALSGVISNNLNTIMKR | not soluble |
| MGSDKIHHHHHHMPEAAFTHERRCSSLCAFVSSSQSPTTNAETIREARSSRCDKTSMTPSFKELKSRFGLDEINTTDAYIIEALIIMAAISLMMSRVIVDELRSLEARQREVEAAADADESASRLPRRRCSLAVERHAHLIQLYLMVELGYELPDLDELLLWASRNPNPHRDRLREQVERGEFGFGRH | not soluble |
| HTGTVDIVADKTLYQPGETAKMLITFPEPIDEALLTLERDRVEQQSLLSHPANWLTLQRLNDTQYEARVPVSNSFAPNITFSVLYTRNGQYSFQNAGIKVAVPQLDIRVKTDKTHYQPGELVNVELTSSLKGKPVSAQLTVGVVDEMIYALQPE | not soluble |
| GPGSMCSGLTAFLVDFVQVVPGQTQTSFQTAAPEDSDPGVYDPNTRSWSGTDGLRYRVPLFPIPSERHTREKVRHVKILMDNCRHICISDELPATKEEKRFWASYRFIQYQLFLAPACVVTPPVYVFFKMFHDKLPHFLRGRTMPILTGLAVAEMWAEATYPSHQLLSMALRAKTPMGDAARAEWTRLQPIDIPFYIFSSYQFQQLFYAVPEEYLFGGDLASLCG | soluble |
| TEDSLMPEEEFLRRNKGPVSIKVQVPNMQDKTEWKLNGQGLVFTLPLTDQVSVIKVKIHEATGMPAGKQKLQYEGIFIKDSNSLAYYNMASGAVIHLALKER | soluble |
| MKYNTMNNDEIILSLCARLKETRLSLSMTQQQLADRAHVGIATIKRIEKGGGLNLDTLISLLRALDKLHNLDAVLFESELRNFHESYEGGEGSGRLQVRQQAADLNNKSSAPQSEEVNYSAALENSLCW | not soluble |
| MGSDKIHHHHHHMNTKDLAYFDELISQKNFSKVAKTFGVSQPTVTTAIKRLESEFGAPLVIRDRVKNTLHVTASGAQLAEHAKIVLHELRLAHQEIDNLSQNRLILGLPPIIENHYFPKIGARLAAEGLLAGLETIEGGSIWLRNAVRDGRVDMTLLGSVEPLAYQTLIAEEFDRQPFCIYVSKQHPLAQRKRVYFNELRREKFVFFNSNFIHNTAFNKLTRRNHFRPNIVFRSNDTHVLMKLIGENVGIGFFTKIVDHYRTDVVRLDLMDIEPPEFITSIVYRTTHILTPVQQQLLTILHETLAVDTDQTD | not soluble |
| MTGRPEDSVIDIYQRHGAAWAKLRGDRLAEGGWLDRFCELLPATASVLDIGCGSGLPIARELVRRGFDVTGVDGASTMLALFRRNLPGTPAHLADMRELALGRRFDGLLAWDSFFHLSPADQRAMFRRFQAHAAAGAALMFTSGPAEGSAIGELAGDRLYHGSLGSDDYRALLDASGFEGVDHIVEDPTCGYRTIWLARQRRLEHHHHHH | not soluble |
| MAHHHHHHMCAWNSAIHAYPTAIAPMLVRRPCHAAMNAYTAVASCATALRLSRSHLHAHMLLLLVLTRQRCNLFTLRSDTFLKAVVQMLFSPALLSTLRSAAGVSARSAPPALRQRVAAIA | not soluble |
| MERDERPPSGGGGGGGSAGFLEPPAALPPPPRNGFCQDELAELDPGTNGETDSLTLGQGHIPVSVPDDRAEQRTCLICGDRATGLHYGIISCEGCKGFFKRSICNKRVYRCSRDKNCVMSRKQRNRCQYCRLLKCLQMGMNRKAIREDGMPGGRNKSIGPVQISEEEIERIMSGQEFEEEANHWSNHGDSDHSSPGNRASESNQPSPGSTLSSSRSVELNGFMAFRDQYMGMSVPPHYQYIPHLFSYSGHSPLLPPQARSLDPQSYSLIHQLMSAEDLEPLGTPMLIEDGYAVTQAELFALLCRLADELLFRQIAWIKKLPFFCELSIKDYTCLLSSTWQELILLSSLTVYSKQIFGELADVTAKYSPSDEELHRFSDEGMEVIERLIYLYHKFHQLKVSNEEYACMKAINFLNQDIRGLTSASQLEQLNKRYWYICQDFTEYKYTHQPNRFPDLMMCLPEIRYIAGKMVNVPLEQLPLLFKVVLHSCKTSTVKE | not soluble |
| GEERKSSSWGRVDAMELPNYSRQLLQQLYTLCKEQQFCDCTISIGTIYFRAHKLVLAAASLLFKTLLDNTDTISIDASVVSPEEFALLLEMMYTGKLPVGKHNFSKIISLADSLQMFDVAVSCKNLLTSLVNCSVQGQVVRDVSAPSSETFRKEPEKPQVEILSSEGAGEPHSSPELAATPGGPVKAETEEAAHSVSQEMSVNSPTAQESQRNAETPAETPTTAEACSPSPPVQTFSEAKKTSTEPGCERKHYQLNFLLENEGVFSDALMVTQDVLKKLEMCSEIKGPQKEMIVKCFEGEGGHSAFQRILGKVREESLDVQTVVSLLRLYQYSNPAVKTALLDRKPEDVDTVQPKGSTEEGKTLSVLLLEHKEDLIQCVTQLRPIMESLETAKEEFLTGTEKRVILNCCEGRTPKETIENLLHRMTEEKTLTAEGLVKLLQAVKTTFPNLGLLLEKLQKSATLPSTTVQPSPDDYGTELLRRYHENLSEIFTDNQILLKMISHMTSLAPGEREVMEKLVKRDSGSGGFNSLISAVLEKQTLSATAIWQLLLVVQETKTCPLDLLMEEIRREPGADAFFRAVTTPEHATLETILRHNQLILEAIQQKIECKLFTSEEEHLAETVKEILSIPSETASPEASLRAVLSRAMEKSVPAIEICHLLCSVHKSFPGLQPVMQELAYIGVLTKEDGEKETWKVSNKFHLEANNKEDEKAAKEDSQPGEQNDQGETGSLPGQQEKEASASPDPAKKSFICKACDKSFHFYCRLKVHMKRCRVAKSKQVQCKECSETKDSKKELDKHQLEAHGAGGEPDAPKKKKKRLPVTCDLCGREFAHASGMQYHKLTEHFDEKPFSCEECGAKFAANSTLKNHLRLHTGDRPFMCKHCLMTFTQASALAYHTKKKHSEGKMYACQYCDAVFAQSIELSRHVRTHTGDKPYVCRDCGKGFRQANGLSIHLHTFHNIEDPYDCKKCRMSFPTLQDHRKHIHEVHSKEYHPCPTCGKIFSAPSMLERHMVTHVGGKPFSCGICNKAYQQLSGLWYHNRTHHPDVFAAQNHRSSKFSSLQCSSCDKTFPNTIEHKKHIKAEHADMKFHECDQCKELFPTPALLQVHVKCQHSGSQPFRCLYCAATFRFPGALQHHVTTEHFKQSETTFPCELCGELFTSQAQLDSHLESEHPKVMSTETQAAASQMAQVIQTPEPVAPTEQVITLEETQLAGSQVFVTLPDSQASQASSELVAVTVEDLLDGTVTLICGEAK | soluble |
| MSLTTSYHIGNVVCAIIEREGRFLIARRPLGKHLARKWEFPGSKVETGESEAEALERELIEELGVRMEIVERLMPVEHCYADRSLRLIAFHCRIAAGAPNAGEHEELRWIDIGEADDYDFPEADLPILAEYRQKIAASVQSEGHHHHHH | not soluble |
| MAHHHHHHMAAVTPPTSRALPLEATAIFPPQGSRELDRGAPPLESLSCTKRATAAQHIRGGEGRGAAPCLYIQTVSGSLLPVVLSPSPTHSPIPQRCEQYRDAYANVTICIDTEERSIQRLETFGGGTTITAILCKRYFPPFQ | not soluble |
| MSAALVAQQVATLREQGFAVVRNFASPPVRQALRELALQHLAQTVDPVEYEADLKYPGAPSSRLAAGGQTVRRLLDAYGRDQRFRDWATQAAIGAFLRAYFQDTPVLSTVHHNCIMTKHPAFGSLTGWHQDIRYWSFSDDDLVSCWLALGDERADNGGLYFVPGSHTASFMPEQYDARKFFRDDLPQNQEWIGRAVCPELQAGDVVFFHCRTLHAARQNATDTVKLSLVHTYHPASCHPLPGTRSAGSPGVPLPLEHHHHHH | not soluble |
| MSGFRKDELIPVIIDIHGEKRKMFEDIADTVLRRVLDEEENECPPIESRGSSTSSFSTTPSSSASPLSINQLLSSSFSQPPAPQLPVPLAFNPFQLALYQSLVANNTLAFPVFGGPPSIFPLLVPPPQPQPTVESIELLKILQNMLAKQKK | not soluble |
| ATITIETCEDPGDWTAAIGDDTFTFWRGLKDAGLLDEVIQEFHQELVETMRGLQQRVQDPPLQLRDAVLLNNIVQNFGMLDLVKKVLASHKCQMDRSREQYARDLAAL | soluble |
| MGGSHHHHHHGMASALATRQRESSITSCCSTSSCDADDEGVRGTCEDASLCKRFAVSIGYWHDPYIQHFVRLSKERKAPEINRGYFARVHGVSQLIKAFLRKTECHCQIVNLGAGMDTTFWRLKDEDLLPSKYFEVDFPMIVTRKLHSIKCKPPLSSPILELHSEDTLQMDGHILDSKRYAVIGADLRDLSELEEKLKKCNMNTQLPTLLIAECVLVYMTPEQSANLLKWAANSFERAMFINYEQVNMGDRFGQIMIENLRRRQCDLAGVETCKSLESQKERLLSNGWETASAVDMMELYNRLPRAEVSRIESLEFLDEMELLEQLMRHYCLCWATKGGNELGLKEITY | not soluble |
| MKPTVNVVFNAHHPKDTQPLDKFFDKELKDTHHLDITVGYISEKSLQYLLLIAGTHPDLTITLTCGMHAREGMTAAQLHHARVLHDYLSDHDRGGVFVIPRLRYHGKIYLFHKNQHTDPIAYIGSANLSAIVPGYTSTFETGVILDPAPEDLVLHLNRDVVPLCVPIDTAHVPIIKDQESPMKHVAEATAVSTSDVVAIMSSPFTYSFDLKLKATASSNLNAHNSGGGARKQKNGSFLARNWYEGEIIVGVETTRLPGYPQNKSEFTAVTDDGWSFVCKISGGNGKNLRSKGDLSILGTWLKSRFIEQGALEYGEDATQENIDRFGRTHMTMRYHPDFDVWSFDLSQTPKP | not soluble |

— the DeepSol protein solubility set
